Measurements as given in patent US20110118131A1 (published 2011).

B1: XPA23 Fab, heavy chain S105R (Fab, V domains shown)
VH: EVQLLESGGGLVQPGGSLRLSCAASGFTFSKYFMFWVRQAPGKGLEWVSVISPSGGMTRYADSVKGRFTISRDNSKNTLYLQMNSLRAEDTAVYYCARVGYGGNRDYWGQGTLVTVSS
VL: DIQMTQSPSSVSASVGDRLTIICRASQDINRWLAWYQQTPGNAPKLLIHSATSLQSGVPSRFSGSGSGTDFTLTINSLQPEDFATYYCQQADSFPLTFGGGTKVEIK
B2: XPA23 Fab, heavy chain T58K (Fab, V domains shown)
VH: EVQLLESGGGLVQPGGSLRLSCAASGFTFSKYFMFWVRQAPGKGLEWVSVISPSGGMKRYADSVKGRFTISRDNSKNTLYLQMNSLRAEDTAVYYCARVGYGGNSDYWGQGTLVTVSS
VL: DIQMTQSPSSVSASVGDRLTIICRASQDINRWLAWYQQTPGNAPKLLIHSATSLQSGVPSRFSGSGSGTDFTLTINSLQPEDFATYYCQQADSFPLTFGGGTKVEIK
B3: XPA23 Fab, heavy chain T58H (Fab, V domains shown)
VH: EVQLLESGGGLVQPGGSLRLSCAASGFTFSKYFMFWVRQAPGKGLEWVSVISPSGGMHRYADSVKGRFTISRDNSKNTLYLQMNSLRAEDTAVYYCARVGYGGNSDYWGQGTLVTVSS
VL: DIQMTQSPSSVSASVGDRLTIICRASQDINRWLAWYQQTPGNAPKLLIHSATSLQSGVPSRFSGSGSGTDFTLTINSLQPEDFATYYCQQADSFPLTFGGGTKVEIK
B4: XPA23 Fab, heavy chain T58R (Fab, V domains shown)
VH: EVQLLESGGGLVQPGGSLRLSCAASGFTFSKYFMFWVRQAPGKGLEWVSVISPSGGMRRYADSVKGRFTISRDNSKNTLYLQMNSLRAEDTAVYYCARVGYGGNSDYWGQGTLVTVSS
VL: DIQMTQSPSSVSASVGDRLTIICRASQDINRWLAWYQQTPGNAPKLLIHSATSLQSGVPSRFSGSGSGTDFTLTINSLQPEDFATYYCQQADSFPLTFGGGTKVEIK
B5: XPA23 Fab, heavy chain T28H (Fab, V domains shown)
VH: EVQLLESGGGLVQPGGSLRLSCAASGFHFSKYFMFWVRQAPGKGLEWVSVISPSGGMTRYADSVKGRFTISRDNSKNTLYLQMNSLRAEDTAVYYCARVGYGGNSDYWGQGTLVTVSS
VL: DIQMTQSPSSVSASVGDRLTIICRASQDINRWLAWYQQTPGNAPKLLIHSATSLQSGVPSRFSGSGSGTDFTLTINSLQPEDFATYYCQQADSFPLTFGGGTKVEIK
B6: XPA23 Fab, heavy chain T28R (Fab, V domains shown)
VH: EVQLLESGGGLVQPGGSLRLSCAASGFRFSKYFMFWVRQAPGKGLEWVSVISPSGGMTRYADSVKGRFTISRDNSKNTLYLQMNSLRAEDTAVYYCARVGYGGNSDYWGQGTLVTVSS
VL: DIQMTQSPSSVSASVGDRLTIICRASQDINRWLAWYQQTPGNAPKLLIHSATSLQSGVPSRFSGSGSGTDFTLTINSLQPEDFATYYCQQADSFPLTFGGGTKVEIK
B7: XPA23 Fab, heavy chain T28G (Fab, V domains shown)
VH: EVQLLESGGGLVQPGGSLRLSCAASGFGFSKYFMFWVRQAPGKGLEWVSVISPSGGMTRYADSVKGRFTISRDNSKNTLYLQMNSLRAEDTAVYYCARVGYGGNSDYWGQGTLVTVSS
VL: DIQMTQSPSSVSASVGDRLTIICRASQDINRWLAWYQQTPGNAPKLLIHSATSLQSGVPSRFSGSGSGTDFTLTINSLQPEDFATYYCQQADSFPLTFGGGTKVEIK
B8: XPA23 Fab, heavy chain T58F (Fab, V domains shown)
VH: EVQLLESGGGLVQPGGSLRLSCAASGFTFSKYFMFWVRQAPGKGLEWVSVISPSGGMFRYADSVKGRFTISRDNSKNTLYLQMNSLRAEDTAVYYCARVGYGGNSDYWGQGTLVTVSS
VL: DIQMTQSPSSVSASVGDRLTIICRASQDINRWLAWYQQTPGNAPKLLIHSATSLQSGVPSRFSGSGSGTDFTLTINSLQPEDFATYYCQQADSFPLTFGGGTKVEIK
B9: XPA23 Fab, heavy chain T58Q (Fab, V domains shown)
VH: EVQLLESGGGLVQPGGSLRLSCAASGFTFSKYFMFWVRQAPGKGLEWVSVISPSGGMQRYADSVKGRFTISRDNSKNTLYLQMNSLRAEDTAVYYCARVGYGGNSDYWGQGTLVTVSS
VL: DIQMTQSPSSVSASVGDRLTIICRASQDINRWLAWYQQTPGNAPKLLIHSATSLQSGVPSRFSGSGSGTDFTLTINSLQPEDFATYYCQQADSFPLTFGGGTKVEIK
B10: XPA23 Fab, heavy chain T28K (Fab, V domains shown)
VH: EVQLLESGGGLVQPGGSLRLSCAASGFKFSKYFMFWVRQAPGKGLEWVSVISPSGGMTRYADSVKGRFTISRDNSKNTLYLQMNSLRAEDTAVYYCARVGYGGNSDYWGQGTLVTVSS
VL: DIQMTQSPSSVSASVGDRLTIICRASQDINRWLAWYQQTPGNAPKLLIHSATSLQSGVPSRFSGSGSGTDFTLTINSLQPEDFATYYCQQADSFPLTFGGGTKVEIK
B11: XPA23 Fab, heavy chain T58W (Fab, V domains shown)
VH: EVQLLESGGGLVQPGGSLRLSCAASGFTFSKYFMFWVRQAPGKGLEWVSVISPSGGMWRYADSVKGRFTISRDNSKNTLYLQMNSLRAEDTAVYYCARVGYGGNSDYWGQGTLVTVSS
VL: DIQMTQSPSSVSASVGDRLTIICRASQDINRWLAWYQQTPGNAPKLLIHSATSLQSGVPSRFSGSGSGTDFTLTINSLQPEDFATYYCQQADSFPLTFGGGTKVEIK
B12: XPA23 Fab, heavy chain T58S (Fab, V domains shown)
VH: EVQLLESGGGLVQPGGSLRLSCAASGFTFSKYFMFWVRQAPGKGLEWVSVISPSGGMSRYADSVKGRFTISRDNSKNTLYLQMNSLRAEDTAVYYCARVGYGGNSDYWGQGTLVTVSS
VL: DIQMTQSPSSVSASVGDRLTIICRASQDINRWLAWYQQTPGNAPKLLIHSATSLQSGVPSRFSGSGSGTDFTLTINSLQPEDFATYYCQQADSFPLTFGGGTKVEIK
B13: XPA23 Fab, heavy chain V50D (Fab, V domains shown)
VH: EVQLLESGGGLVQPGGSLRLSCAASGFTFSKYFMFWVRQAPGKGLEWVSDISPSGGMTRYADSVKGRFTISRDNSKNTLYLQMNSLRAEDTAVYYCARVGYGGNSDYWGQGTLVTVSS
VL: DIQMTQSPSSVSASVGDRLTIICRASQDINRWLAWYQQTPGNAPKLLIHSATSLQSGVPSRFSGSGSGTDFTLTINSLQPEDFATYYCQQADSFPLTFGGGTKVEIK
B14: XPA23 Fab, heavy chain T58E (Fab, V domains shown)
VH: EVQLLESGGGLVQPGGSLRLSCAASGFTFSKYFMFWVRQAPGKGLEWVSVISPSGGMERYADSVKGRFTISRDNSKNTLYLQMNSLRAEDTAVYYCARVGYGGNSDYWGQGTLVTVSS
VL: DIQMTQSPSSVSASVGDRLTIICRASQDINRWLAWYQQTPGNAPKLLIHSATSLQSGVPSRFSGSGSGTDFTLTINSLQPEDFATYYCQQADSFPLTFGGGTKVEIK
B15: XPA23 Fab, heavy chain T58D (Fab, V domains shown)
VH: EVQLLESGGGLVQPGGSLRLSCAASGFTFSKYFMFWVRQAPGKGLEWVSVISPSGGMDRYADSVKGRFTISRDNSKNTLYLQMNSLRAEDTAVYYCARVGYGGNSDYWGQGTLVTVSS
VL: DIQMTQSPSSVSASVGDRLTIICRASQDINRWLAWYQQTPGNAPKLLIHSATSLQSGVPSRFSGSGSGTDFTLTINSLQPEDFATYYCQQADSFPLTFGGGTKVEIK
B16: XPA23 Fab, heavy chain T28E (Fab, V domains shown)
VH: EVQLLESGGGLVQPGGSLRLSCAASGFEFSKYFMFWVRQAPGKGLEWVSVISPSGGMTRYADSVKGRFTISRDNSKNTLYLQMNSLRAEDTAVYYCARVGYGGNSDYWGQGTLVTVSS
VL: DIQMTQSPSSVSASVGDRLTIICRASQDINRWLAWYQQTPGNAPKLLIHSATSLQSGVPSRFSGSGSGTDFTLTINSLQPEDFATYYCQQADSFPLTFGGGTKVEIK
B17: XPA23 Fab, heavy chain T58Y (Fab, V domains shown)
VH: EVQLLESGGGLVQPGGSLRLSCAASGFTFSKYFMFWVRQAPGKGLEWVSVISPSGGMYRYADSVKGRFTISRDNSKNTLYLQMNSLRAEDTAVYYCARVGYGGNSDYWGQGTLVTVSS
VL: DIQMTQSPSSVSASVGDRLTIICRASQDINRWLAWYQQTPGNAPKLLIHSATSLQSGVPSRFSGSGSGTDFTLTINSLQPEDFATYYCQQADSFPLTFGGGTKVEIK
B18: XPA23 Fab, heavy chain S105Y (Fab, V domains shown)
VH: EVQLLESGGGLVQPGGSLRLSCAASGFTFSKYFMFWVRQAPGKGLEWVSVISPSGGMTRYADSVKGRFTISRDNSKNTLYLQMNSLRAEDTAVYYCARVGYGGNYDYWGQGTLVTVSS
VL: DIQMTQSPSSVSASVGDRLTIICRASQDINRWLAWYQQTPGNAPKLLIHSATSLQSGVPSRFSGSGSGTDFTLTINSLQPEDFATYYCQQADSFPLTFGGGTKVEIK
B19: XPA23 Fab, heavy chain T58N (Fab, V domains shown)
VH: EVQLLESGGGLVQPGGSLRLSCAASGFTFSKYFMFWVRQAPGKGLEWVSVISPSGGMNRYADSVKGRFTISRDNSKNTLYLQMNSLRAEDTAVYYCARVGYGGNSDYWGQGTLVTVSS
VL: DIQMTQSPSSVSASVGDRLTIICRASQDINRWLAWYQQTPGNAPKLLIHSATSLQSGVPSRFSGSGSGTDFTLTINSLQPEDFATYYCQQADSFPLTFGGGTKVEIK
B20: XPA23 Fab, heavy chain S105W (Fab, V domains shown)
VH: EVQLLESGGGLVQPGGSLRLSCAASGFTFSKYFMFWVRQAPGKGLEWVSVISPSGGMTRYADSVKGRFTISRDNSKNTLYLQMNSLRAEDTAVYYCARVGYGGNWDYWGQGTLVTVSS
VL: DIQMTQSPSSVSASVGDRLTIICRASQDINRWLAWYQQTPGNAPKLLIHSATSLQSGVPSRFSGSGSGTDFTLTINSLQPEDFATYYCQQADSFPLTFGGGTKVEIK
B21: XPA23 Fab, heavy chain T28Q (Fab, V domains shown)
VH: EVQLLESGGGLVQPGGSLRLSCAASGFQFSKYFMFWVRQAPGKGLEWVSVISPSGGMTRYADSVKGRFTISRDNSKNTLYLQMNSLRAEDTAVYYCARVGYGGNSDYWGQGTLVTVSS
VL: DIQMTQSPSSVSASVGDRLTIICRASQDINRWLAWYQQTPGNAPKLLIHSATSLQSGVPSRFSGSGSGTDFTLTINSLQPEDFATYYCQQADSFPLTFGGGTKVEIK
B22: XPA23 Fab, heavy chain T28W (Fab, V domains shown)
VH: EVQLLESGGGLVQPGGSLRLSCAASGFWFSKYFMFWVRQAPGKGLEWVSVISPSGGMTRYADSVKGRFTISRDNSKNTLYLQMNSLRAEDTAVYYCARVGYGGNSDYWGQGTLVTVSS
VL: DIQMTQSPSSVSASVGDRLTIICRASQDINRWLAWYQQTPGNAPKLLIHSATSLQSGVPSRFSGSGSGTDFTLTINSLQPEDFATYYCQQADSFPLTFGGGTKVEIK

Biological target: T1, IL-1beta (UniProt P01584 117-269)
T1 construct: also called IL-1β
Assay: Biacore

Question: Does B1 bind?
Answer: Result: no binding

Question: Does B2 bind?
Answer: Result: no binding

Question: How did the “fold difference in affinity vs parental” value turn out when B3 was run?
Answer: The value was 0.98 fold.

Question: Which “fold difference in affinity vs parental” value does the source give for B4 here?
Answer: The value was 1.14 fold.

Question: Does B5 bind?
Answer: Result: no binding

Question: Does B6 bind?
Answer: Result: no binding

Question: Does B7 bind?
Answer: Result: no binding

Question: How did the “fold difference in affinity vs parental” value turn out when B8 was run?
Answer: Its value is 1.04 fold.

Question: Does B9 bind?
Answer: Result: no binding

Question: Does B10 bind?
Answer: Result: no binding

Question: Which “fold difference in affinity vs parental” value does the source give for B11 here?
Answer: The value was 0.93 fold.

Question: B12 was tested. Which “fold difference in affinity vs parental” value did it give?
Answer: The value was 0.82 fold.

Question: Does B13 bind?
Answer: Result: no binding

Question: Does B14 bind?
Answer: Result: no binding

Question: B15 was tested. Which “fold difference in affinity vs parental” value did it give?
Answer: The value was 0.12 fold.

Question: Does B16 bind?
Answer: Result: no binding

Question: B17 was tested. Which “fold difference in affinity vs parental” value did it give?
Answer: The value was 1.01 fold.

Question: Does B18 bind?
Answer: Result: no binding

Question: B19 was tested. Which “fold difference in affinity vs parental” value did it give?
Answer: The value was 0.9 fold.

Question: Does B20 bind?
Answer: Result: no binding

Question: Does B21 bind?
Answer: Result: no binding

Question: Does B22 bind?
Answer: Result: no binding
